# Source: patent US20240360208A1 (Hoffmann-La Roche, published 2024)
# Substitutions are numbered along the chain they refer to. Names may count otherwise.
# B1: 11K2H1503/11K2L1338 (antibody, V domains shown)
# VH: QVQLVQSGAEVKKPGSSVKVSCKASGLTISHTYMHWVRQAPGQGLEWMGRIDPDNHNTKFDPKFQGRVTITADTSTSTAYMELSSLRSEDTAVYYCARGVFGFFDHWGQGTTVTVSS
# VL: DIQMTQSPSSLSASVGDRVTITCKAFEDIYNRRAWYQQKPGKAPKLLIHGATSLEHGVPSRFSGSGSGTDYTLTISSLQPEDFATYYCQQFWSAPYTFGGGTKVEIK
# notes: also called modified 11K2 variant (VH H1503 / VL L1338)
# B2: 11K2//1G9-PGLALA (bispecific antibody, V domains shown)
# VH 1: B1 VH with H31D, D54A, H56G, H106Y
# VL 1: B1 VL with F26T, R33L, H49S, H56T
# VH 2: QSLEESGGDLVKPGASLTLTCKASGIDFSLYSYMCWVRQAPGKGLEWIACVDAGASGSTYYASWAKGRFTISKTSSTTVTLQMTSLTAADTATYFCARGILYYTWPYPAGAIDAFDSWGPGTLVTVSS
# VL 2: AYDMTQTPASVSEPVGGTVTIKCQASESISNYLSWYQQKPGQPPKLLIYKASTLASGVPSRFKGSGSGTEYTVTISGVQSDDAATYYCQQSYSSSNVFNTFGGGTEVVVK
# notes: CrossMab, IgG1 with L234A, L235A, P329G, knobs-into-holes; crossed arm humanized 11K2, non-crossed arm 1G9; also called CCL2-0043; P1AA3463
# B3: 11K2H1503/11K2L1201 (antibody, V domains shown)
# VH: B1 VH
# VL: B1 VL with F26T, R33L, W92R
# notes: also called modified 11K2 variant (VH H1503 / VL L1201)
# B4: 11K2H1514/11K2L1338 (antibody, V domains shown)
# VH: B1 VH with D54E, D105E
# VL: B1 VL
# notes: also called modified 11K2 variant (VH H1514 / VL L1338)
# B5: 11K2H1510/11K2L1338 (antibody, V domains shown)
# VH: B1 VH with D105E
# VL: B1 VL
# notes: also called modified 11K2 variant (VH H1510 / VL L1338)
# B6: CKLO2-IgG1 (bispecific antibody)
# heavy 1: not shown
# heavy 2: not shown
# light 1: QVQLVQSGAEVKKPGSSVKVSCKASGLTISHTYMHWVRQAPGQGLEWMGRIDPDNHNTKFDPKFQGRVTITADTSTSTAYMELSSLRSEDTAVYYCARGVFGFFEHWGQGTTVTVSSASVAAPSVFIFPPSDEQLKSGTASVVCLLNNFYPREAKVQWKVDNALQSGNSQESVTEQDSKDSTYSLSSTLTLSKADYEKHKVYACEVTHQGLSSPVTKSFNRGEC
# light 2: EIVLTQSPATLSLSPGERATLSCRASQHVSDAYLAWYQQKPGQAPRLLIYDASDRAEGVPARFSGSGSGTDFTLTISSLEPEDFAVYYCHQYIHLHSFTFGQGTKVEIKRTVAAPSVFIFPPSDRKLKSGTASVVCLLNNFYPREAKVQWKVDNALQSGNSQESVTEQDSKDSTYSLSSTLTLSKADYEKHKVYACEVTHQGLSSPVTKSFNRGEC
# B7: CKLO2-GG01 (=P1AF8137) (bispecific antibody)
# heavy 1: DIQMTQSPSSLSASVGDRVTITCKAFEDIYNRRAWYQQKPGKAPKLLIHGATSLEHGVPSRFSGSGSGTDYTLTISSLQPEDFATYYCQQFWSAPYTFGGGTKVEIKSSASTKGPSVFPLAPSSKSTSGGTAALGCLVKDYFPEPVTVSWNSGALTSGVHTFPAVLQSSGLYSLSSVVTVPSSSLGTQTYICNVNHKPSNTKVDKKVEPKSCDKTHTCPPCPAPEYLGGDSVFLFPPKPKDVLMISRTPEVTCVVIDVSHEDPEVKFNWYVDGVEVHNAKTKPREEQYNSTYRVVSVLPVLHRDWLNGKEYKCKVSNKALPKPIEKTISKAKGQRREPQVYTLPPCRDELTKNQVSLWCLVKGFYPSDIAVEWESNGQPENNYKTTPPVLDSDGSFFLYSKLTVDKSRWQQGNVFSCSVMHEALHAHYTRKELSLSP
# heavy 2: not shown
# light 1: B6 light 1
# light 2: B6 light 2
# B8: CKLO2-SG1095 (=P1AD8325) (bispecific antibody)
# heavy 1: B7 heavy 1 with Y226L, L227W, G228N, D230P, V242T, I256V, H260D, Q287L, P299T, K318T
# heavy 2: not shown
# light 1: B6 light 1
# light 2: B6 light 2
# B9: 2F6 (antibody, IgG1, V domains shown)
# VH: QSLEESGGGLVQPEGSLTLTCTASGFSFNNNYYMCWVRQAPGKGLEWIGCISTDDSNTHYASWAQGRFTISKASSTALTLQVAGLTVADMATYFCARDAHFTSYGYGFDLWGPGTLVTVSS
# VL: DIVMTQTPASVSAAVGGTVSINCRASEDIENLVAWYQQKPGQPPKLLIYQASKLASGVPSRFKGSGSGAEFTLTIGDLESADAATYYCQGDYGSGWIMYSFGGGTDLVVK
# notes: also called CCL2-0014
# B10: CNTO888H0625/CNTO888L0616 (antibody, V domains shown)
# VH: QVQLVQSGAEVKKPGSSVKVSCKASGGTFSHYGISWVRQAPGQGLEWMGGIIHIFHTANYAQKFQGRVTITADESTSTAYMELSSLRSEDTAVYYCARYDAHYGELDFWGQGTLVTVSS
# VL: EIVLTQSPATLSLSPGERATLSCRASQHVSDAYLAWYQQKPGQAPRLLIYDASDRAEGVPARFSGSGSGTDFTLTISSLEPEDFAVYYCHQYIHLHSFTFGQGTKVEIK
# notes: also called modified CNTO888 variant (VH H0625 / VL L0616)
# B11: CNTO888H0635/CNTO888L0616 (antibody, V domains shown)
# VH: B10 VH with I51H, H56G
# VL: B10 VL
# notes: also called modified CNTO888 variant (VH H0635 / VL L0616)
# B12: CNTO888H0695/CNTO888L0616 (antibody, V domains shown)
# VH: B10 VH with I51V, H53P
# VL: B10 VL
# notes: also called modified CNTO888 variant (VH H0695 / VL L0616)
# B13: CNTO888H0634/CNTO888L0616 (antibody, V domains shown)
# VH: B10 VH with I34T, H56G
# VL: B10 VL
# notes: also called modified CNTO888 variant (VH H0634 / VL L0616)
# B14: murine 11K2 (antibody, V domains shown)
# VH: EVQLQQSGAELVKAGASVKLSCPASGLNIKDTYMHWVKQRPEQGLEWIGRIDPANGNTKFDPKFQGKATITADTSSNTAYLQLSSLTSEDTAVYYCARGVFGFFDYWGQGTTLTVSS
# VL: DIQMTQSSSSFSVSLGDRVTITCKATEDIYNRLAWYQQKPGSAPRLLISGATSLETGVPSRFSGSGSGKDYTLSITSLQTEDVATYYCQQFWSAPYTFGGGTKLEIK
# notes: also called 11K2m; X-0048
# B15: 1A4 (antibody, V domains shown)
# VH: QSLEESGGDLVKPGASLTLTCTASELDFYWICWVRQAPGKGLEWIACIGAGSSGSTYYASWAKGRFTVSKTSSTTVTLQMTSLTAADTATYFCARTGTEFTYYSLWGPGTLVTVSS
# VL: ALVMTQTPSSVSAAVGGTVTINCQASQSVYNNNMAWYQQKPGQPPKLLIYTASSLASGVPSHFRGSGSGTQFTLTISDLESDDAATYYCAGYKSYSNDEYGFGGGTEVVVK
# notes: which format stood in each assay is not always stated; also called CCL2-0008
# Legend:
# [1] = target: T1, human CCL2 (MCP1) - P8A variant (human, UniProt P13500 24-99); assay: number printed over the column of sensorgrams; the assay and the CCL2 form behind the number are not stated on the sheet (the sensorgrams are on monomeric CCL2)
# T1 construct: In-house point mutant that cannot dimerise; also called monomeric human CCL2; monomeric CCL2
# [2] = target: T2, human CCL2 (MCP1) - wild type (wt) (human, UniProt P13500 24-99); assay: SPR, C1 chip, anti-human Fc capture, 25 C, pH 7.4, Langmuir 1:1
# T2 construct: Made in-house or bought (R&D Systems 279-MC), depending on the assay; can form dimers; also called wt human CCL2; WT human CCL2
# Protocol: The sample and system buffer was PBS-T (10 mM phosphate buffered saline including 0.05% Tween20) pH 7.4. The flow cell was set to 25° C.—and the sample block set to 12° C.—and primed with running buffer twice. The bispecific antibody was captured by injecting a 2 μg/ml solution for 60 see at a flow rate of 10 μl/min. Association was measured by injection of human CCL2 (wt) in various concentrations in solution for 150 see at a flow rate of 30 μl/min starting with 30 nM in 1:10 dilutions. The dissociation phase was monitored for up to 1200 sec and triggered by switching from the sample solution to running buffer. […] Bulk refractive index differences were corrected by subtracting the response obtained from a goat anti human IgG Fc surface. Blank injections are also subtracted (=double referencing). For calculation of kinetic parameters, the Langmuir 1:1 model was used.
# [3] = target: T2, human CCL2 (MCP1) - wild type (wt); assay: cell-based or functional assay
# [4] = target: T3, human FcγRIIb receptor on CHO-K1 cells (clone 223) (human, UniProt P31994 43-310); assay: cell-based or functional assay
# T3 sequence (looked up): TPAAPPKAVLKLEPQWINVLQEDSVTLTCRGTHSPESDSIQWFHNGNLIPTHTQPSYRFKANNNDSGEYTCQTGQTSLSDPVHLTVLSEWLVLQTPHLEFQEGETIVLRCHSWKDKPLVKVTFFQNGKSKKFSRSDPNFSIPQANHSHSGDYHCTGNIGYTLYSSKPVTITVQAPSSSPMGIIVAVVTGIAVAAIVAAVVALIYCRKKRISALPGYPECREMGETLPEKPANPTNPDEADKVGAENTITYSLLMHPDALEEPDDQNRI
# [5] = target: T2, human CCL2 (MCP1) - wild type (wt); assay: SPR T200, 37 C, antibody captured, 1:1 model
# Protocol: (§1) Antibody clone supernatants were diluted 1:2 in system buffer and were captured for 1 min at 5 μl/min. […] Analyte kinetics were performed at 30 μl/min. As analyte in solution wt human CCL2 or monomeric CCL2 P8A variant CCL2 were used. Analytes were injected at 90 nM highest concentration. The analyte contact time was 3 min and the dissociation time was 10 min. The Biaevaluation software V.3.0 was used according to the instructions of the manufacturer GEHC. A 1:1 binding model with RMAX local was applied to apparently estimate kinetic rates.
# [6] = target: T1, human CCL2 (MCP1) - P8A variant; assay: SPR T200, 37 C, antibody captured, 1:1 model
# Protocol: as §1
# [7] = target: T2, human CCL2 (MCP1) - wild type (wt); assay: cell-based or functional assay; remark: listed apart in the source
# [8] = target: T1, human CCL2 (MCP1) - P8A variant; assay: number printed beside the row of sensorgrams; the assay and the CCL2 form behind the number are not stated on the sheet (the sensorgrams are on monomeric CCL2)
binder,measurement,setting,value
B1,Affinity relative to parent 11K2,[1],0.2
B2,binding result,[2],binds
B3,Affinity relative to parent 11K2,[1],0.05
B4,Affinity relative to parent 11K2,[1],0.02
B5,Affinity relative to parent 11K2,[1],< 0.01
B6,"IC50, inhibition of THP-1 migration (chemotaxis assay)",[3],0.2 µg/mL
B7,"IC50, inhibition of THP-1 migration (chemotaxis assay)",[3],0.2 µg/mL
B8,Depletion level max (%) of CCL2 from the supernatant,[4],85%
same,EC50 [nM] of CCL2 depletion,[4],0.5 nM
same,"IC50, inhibition of THP-1 migration (chemotaxis assay)",[3],0.2 µg/mL
B9,Kd,[5],0.059 nM
same,T1/2,[5],0.867 h
same,Kd,[6],0.091 nM
same,T1/2,[6],0.783 h
same,THP1 chemotaxis [fold change compared to IgG control],[7],6.7 fold
B10,Affinity relative to parent CNTO888,[8],3 X
B11,Affinity relative to parent CNTO888,[8],3 X
B12,Affinity relative to parent CNTO888,[8],1 X
B13,Affinity relative to parent CNTO888,[8],10 X
B14,Kd,[5],0.35 nM
same,T1/2,[5],0.317 h
same,Kd,[6],0.011 nM
same,T1/2,[6],8.63 h
same,THP1 chemotaxis [fold change compared to IgG control],[7],6.9 fold
B15,Kd,[5],0.073 nM
same,T1/2,[5],1.67 h
same,Kd,[6],0.059 nM
same,T1/2,[6],2.9 h
same,THP1 chemotaxis [fold change compared to IgG control],[7],4.5 fold
